{
  "source": "paper PMC3579193",
  "about": "“Elucidation of relaxin-3 binding interactions in the extracellular loops of RXFP3” (Frontiers in Endocrinology, 2013)",
  "parents": {"B1": {"name": "mono-Eu-labeled relaxin-3 agonist H3 relaxin B-chain, INSL5 A chain (H3/I5) [modified: mono-Eu label on the peptide; chain and site not stated] [not stated | human] / HA-tagged human RXFP3 (HA-RXFP3) [human] (parent complex)", "chain 1": "RAAPYGVRLCGREFIRAVIFTCGGSRW", "chain 2": "QDLQTLCCTDGCSMTDLSALC", "chain 3": "QMADAATIATMNKAAGGDKLAELFSLVPDLLEAANTSGNASLQLPDLWWELGLELPDGAPPGHPPGSGGAESADTEARVRILISVVYWVVCALGLAGNLLVLYLMKSMQGWRKSSINLFVTNLALTDFQFVLTLPFWAVENALDFKWPFGKAMCKIVSMVTSMNMYASVFFLTAMSVTRYHSVASALKSHRTRGHGRGDCCGRSLGDSCCFSAKALCVWIWALAALASLPSAIFSTTVKVMGEELCLVRFPDKLLGRDRQFWLGLYHSQKVLLGFVLPLGIIILCYLLLVRFIADRRAAGTKGGAAVAGGRPTGASARRLSKVTKSVTIVVLSFFLCWLPNQALTTWSILIKFNAVPFSQEYFLCQVYAFPVSVCLAHSNSCLNPVLYCLVRREFRKALKSLLWRIASPSITSMRPFTATTKPEHEDQGLQAPAPPHAAAEPDLLYYPPGVVVYSGGRYDLLPSSSAY"}},
  "data": [
    {"variants_of": "B1", "assay": "Eu-H3/I5 binding on cells, normalized to cell surface expression; read off a plot", "values": [
      {"variant": "chain 3 QMADAATIATMNKAAGGDKLAELFSLVPDLLEAANTSGNASLQLPDLWWELGLELPDGAPPGHPPGSGGAESADTEARVRILISVVYWVVCALGLAGNLLVLYLMKSMQGWRKSSINLFVTNLALTDFQFVLTLPFWAVANALDFKWPFGKAMCKIVSMVTSMNMYASVFFLTAMSVTRYHSVASALKSHRTRGHGRGDCCGRSLGDSCCFSAKALCVWIWALAALASLPSAIFSTTVKVMGEELCLVRFPDKLLGRDRQFWLGLYHSQKVLLGFVLPLGIIILCYLLLVRFIADRRAAGTKGGAAVAGGRPTGASARRLSKVTKSVTIVVLSFFLCWLPNQALTTWSILIKFNAVPFSQEYFLCQVYAFPVSVCLAHSNSCLNPVLYCLVRREFRKALKSLLWRIASPSITSMRPFTATTKPEHEDQGLQAPAPPHAAAEPDLLYYPPGVVVYSGGRYDLLPSSSAY", "note": "[chain 3 E140A]", "percent of parent": "~5.5 % of RXFP3 binding"},
      {"variant": "chain 3 QMADAATIATMNKAAGGDKLAELFSLVPDLLEAANTSGNASLQLPDLWWELGLELPDGAPPGHPPGSGGAESAATEARVRILISVVYWVVCALGLAGNLLVLYLMKSMQGWRKSSINLFVTNLALTDFQFVLTLPFWAVENALDFKWPFGKAMCKIVSMVTSMNMYASVFFLTAMSVTRYHSVASALKSHRTRGHGRGDCCGRSLGDSCCFSAKALCVWIWALAALASLPSAIFSTTVKVMGEELCLVRFPDKLLGRDRQFWLGLYHSQKVLLGFVLPLGIIILCYLLLVRFIADRRAAGTKGGAAVAGGRPTGASARRLSKVTKSVTIVVLSFFLCWLPNQALTTWSILIKFNAVPFSQEYFLCQVYAFPVSVCLAHSNSCLNPVLYCLVRREFRKALKSLLWRIASPSITSMRPFTATTKPEHEDQGLQAPAPPHAAAEPDLLYYPPGVVVYSGGRYDLLPSSSAY", "note": "[chain 3 D74A]", "percent of parent": "~81 % of RXFP3 binding"},
      {"variant": "chain 3 QMADAATIATMNKAAGGDKLAELFSLVPDLLEAANTSGNASLQLPDLWWELGLELPDGAPPGHPPGSGGAESADTEARVRILISVVYWVVCALGLAGNLLVLYLMKSMQGWRKSSINLFVTNLALTDFQFVLTLPFWAVENALDFKWPFGKAMCKIVSMVTSMNMYASVFFLTAMSVTRYHSVASALKSHRTRGHGRGDCCGRSLGDSCCFSAKALCVWIWALAALASLPSAIFSTTVKVMGEELCLVRFPDKLLGRARQFWLGLYHSQKVLLGFVLPLGIIILCYLLLVRFIADRRAAGTKGGAAVAGGRPTGASARRLSKVTKSVTIVVLSFFLCWLPNQALTTWSILIKFNAVPFSQEYFLCQVYAFPVSVCLAHSNSCLNPVLYCLVRREFRKALKSLLWRIASPSITSMRPFTATTKPEHEDQGLQAPAPPHAAAEPDLLYYPPGVVVYSGGRYDLLPSSSAY", "note": "[chain 3 D258A]", "percent of parent": "~79 % of RXFP3 binding"},
      {"variant": "chain 3 QMADAATIATMNKAAGGDKLAELFSLVPDLLEAANTSGNASLQLPDLWWELGLELPDGAPPGHPPGSGGAESADTEARVRILISVVYWVVCALGLAGNLLVLYLMKSMQGWRKSSINLFVTNLALTDFQFVLTLPFWAVENALAFKWPFGKAMCKIVSMVTSMNMYASVFFLTAMSVTRYHSVASALKSHRTRGHGRGDCCGRSLGDSCCFSAKALCVWIWALAALASLPSAIFSTTVKVMGEELCLVRFPDKLLGRDRQFWLGLYHSQKVLLGFVLPLGIIILCYLLLVRFIADRRAAGTKGGAAVAGGRPTGASARRLSKVTKSVTIVVLSFFLCWLPNQALTTWSILIKFNAVPFSQEYFLCQVYAFPVSVCLAHSNSCLNPVLYCLVRREFRKALKSLLWRIASPSITSMRPFTATTKPEHEDQGLQAPAPPHAAAEPDLLYYPPGVVVYSGGRYDLLPSSSAY", "note": "[chain 3 D144A]", "percent of parent": "~9.5 % of RXFP3 binding"},
      {"variant": "chain 3 QMADAATIATMNKAAGGDKLAELFSLVPDLLEAANTSGNASLQLPDLWWELGLELPDGAPPGHPPGSGGAESADTEARVRILISVVYWVVCALGLAGNLLVLYLMKSMQGWRKSSINLFVTNLALTDFQFVLTLPFWAVENALDFKWPFGKAMCKIVSMVTSMNMYASVFFLTAMSVTRYHSVASALKSHRTRGHGRGDCCGRSLGDSCCFSAKALCVWIWALAALASLPSAIFSTTVKVMGEELCLVRFPDKLLGRDRQFWLGLYHSQKVLLGFVLPLGIIILCYLLLVRFIADRRAAGTKGGAAVAGGRPTGASARRLSKVTKSVTIVVLSFFLCWLPNQALTTWSILIKFNAVPFSQAYFLCQVYAFPVSVCLAHSNSCLNPVLYCLVRREFRKALKSLLWRIASPSITSMRPFTATTKPEHEDQGLQAPAPPHAAAEPDLLYYPPGVVVYSGGRYDLLPSSSAY", "note": "[chain 3 E361A]", "percent of parent": "~77 % of RXFP3 binding"},
      {"variant": "chain 3 QMADAATIATMNKAAGGDKLAELFSLVPDLLEAANTSGNASLQLPDLWWELGLELPDGAPPGHPPGSGGAESADTEARVRILISVVYWVVCALGLAGNLLVLYLMKSMQGWRKSSINLFVTNLALTDFQFVLTLPFWAVANALAFKWPFGKAMCKIVSMVTSMNMYASVFFLTAMSVTRYHSVASALKSHRTRGHGRGDCCGRSLGDSCCFSAKALCVWIWALAALASLPSAIFSTTVKVMGEELCLVRFPDKLLGRDRQFWLGLYHSQKVLLGFVLPLGIIILCYLLLVRFIADRRAAGTKGGAAVAGGRPTGASARRLSKVTKSVTIVVLSFFLCWLPNQALTTWSILIKFNAVPFSQEYFLCQVYAFPVSVCLAHSNSCLNPVLYCLVRREFRKALKSLLWRIASPSITSMRPFTATTKPEHEDQGLQAPAPPHAAAEPDLLYYPPGVVVYSGGRYDLLPSSSAY", "note": "[chain 3 E140A, chain 3 D144A]", "percent of parent": "~6 % of RXFP3 binding"},
      {"variant": "chain 3 QMADAATIATMNKAAGGDKLAELFSLVPDLLEAANTSGNASLQLPDLWWELGLELPDGAPPGHPPGSGGAASADTEARVRILISVVYWVVCALGLAGNLLVLYLMKSMQGWRKSSINLFVTNLALTDFQFVLTLPFWAVENALDFKWPFGKAMCKIVSMVTSMNMYASVFFLTAMSVTRYHSVASALKSHRTRGHGRGDCCGRSLGDSCCFSAKALCVWIWALAALASLPSAIFSTTVKVMGEELCLVRFPDKLLGRDRQFWLGLYHSQKVLLGFVLPLGIIILCYLLLVRFIADRRAAGTKGGAAVAGGRPTGASARRLSKVTKSVTIVVLSFFLCWLPNQALTTWSILIKFNAVPFSQEYFLCQVYAFPVSVCLAHSNSCLNPVLYCLVRREFRKALKSLLWRIASPSITSMRPFTATTKPEHEDQGLQAPAPPHAAAEPDLLYYPPGVVVYSGGRYDLLPSSSAY", "note": "[chain 3 E71A]", "percent of parent": "~110 % of RXFP3 binding"},
      {"variant": "chain 3 QMADAATIATMNKAAGGDKLAELFSLVPDLLEAANTSGNASLQLPALWWALGLELPDGAPPGHPPGSGGAESADTEARVRILISVVYWVVCALGLAGNLLVLYLMKSMQGWRKSSINLFVTNLALTDFQFVLTLPFWAVENALDFKWPFGKAMCKIVSMVTSMNMYASVFFLTAMSVTRYHSVASALKSHRTRGHGRGDCCGRSLGDSCCFSAKALCVWIWALAALASLPSAIFSTTVKVMGEELCLVRFPDKLLGRDRQFWLGLYHSQKVLLGFVLPLGIIILCYLLLVRFIADRRAAGTKGGAAVAGGRPTGASARRLSKVTKSVTIVVLSFFLCWLPNQALTTWSILIKFNAVPFSQEYFLCQVYAFPVSVCLAHSNSCLNPVLYCLVRREFRKALKSLLWRIASPSITSMRPFTATTKPEHEDQGLQAPAPPHAAAEPDLLYYPPGVVVYSGGRYDLLPSSSAY", "note": "[chain 3 D46A, chain 3 E50A]", "percent of parent": "~99 % of RXFP3 binding"},
      {"variant": "chain 3 QMADAATIATMNKAAGGDKLAELFSLVPDLLEAANTSGNASLQLPDLWWELGLELPDGAPPGHPPGSGGAESADTEARVRILISVVYWVVCALGLAGNLLVLYLMKSMQGWRKSSINLFVTNLALTDFQFVLTLPFWAVENALDFKWPFGKAMCKIVSMVTSMNMYASVFFLTAMSVTRYHSVASALKSHRTRGHGRGDCCGRSLGDSCCFSAKALCVWIWALAALASLPSAIFSTTVKVMGEELCLVRFPAKLLGRDRQFWLGLYHSQKVLLGFVLPLGIIILCYLLLVRFIADRRAAGTKGGAAVAGGRPTGASARRLSKVTKSVTIVVLSFFLCWLPNQALTTWSILIKFNAVPFSQEYFLCQVYAFPVSVCLAHSNSCLNPVLYCLVRREFRKALKSLLWRIASPSITSMRPFTATTKPEHEDQGLQAPAPPHAAAEPDLLYYPPGVVVYSGGRYDLLPSSSAY", "note": "[chain 3 D252A]", "percent of parent": "~96 % of RXFP3 binding"},
      {"variant": "chain 3 QMADAATIATMNKAAGGDKLAELFSLVPDLLEAANTSGNASLQLPDLWWELGLALPAGAPPGHPPGSGGAESADTEARVRILISVVYWVVCALGLAGNLLVLYLMKSMQGWRKSSINLFVTNLALTDFQFVLTLPFWAVENALDFKWPFGKAMCKIVSMVTSMNMYASVFFLTAMSVTRYHSVASALKSHRTRGHGRGDCCGRSLGDSCCFSAKALCVWIWALAALASLPSAIFSTTVKVMGEELCLVRFPDKLLGRDRQFWLGLYHSQKVLLGFVLPLGIIILCYLLLVRFIADRRAAGTKGGAAVAGGRPTGASARRLSKVTKSVTIVVLSFFLCWLPNQALTTWSILIKFNAVPFSQEYFLCQVYAFPVSVCLAHSNSCLNPVLYCLVRREFRKALKSLLWRIASPSITSMRPFTATTKPEHEDQGLQAPAPPHAAAEPDLLYYPPGVVVYSGGRYDLLPSSSAY", "note": "[chain 3 E54A, chain 3 D57A]", "percent of parent": "~130 % of RXFP3 binding"},
      {"variant": "chain 3 QMADAATIATMNKAAGGDKLAELFSLVPDLLEAANTSGNASLQLPDLWWELGLELPDGAPPGHPPGSGGAESADTEARVRILISVVYWVVCALGLAGNLLVLYLMKSMQGWRKSSINLFVTNLALTDFQFVLTLPFWAVENALDFKWPFGKAMCKIVSMVTSMNMYASVFFLTAMSVTRYHSVASALKSHRTRGHGRGDCCGRSLGDSCCFSAKALCVWIWALAALASLPSAIFSTTVKVMGAELCLVRFPDKLLGRDRQFWLGLYHSQKVLLGFVLPLGIIILCYLLLVRFIADRRAAGTKGGAAVAGGRPTGASARRLSKVTKSVTIVVLSFFLCWLPNQALTTWSILIKFNAVPFSQEYFLCQVYAFPVSVCLAHSNSCLNPVLYCLVRREFRKALKSLLWRIASPSITSMRPFTATTKPEHEDQGLQAPAPPHAAAEPDLLYYPPGVVVYSGGRYDLLPSSSAY", "note": "[chain 3 E243A]", "percent of parent": "~15 % of RXFP3 binding"}
    ]}
  ]
}
